Measurements taken from patent US20250297004A1, “NECTIN-4 BINDING AGENTS” (INNATE PHARMA, priority 2022, published 2025).

T1: human Nectin-4 Mutant 9 (L150S/S152A/Q234R/I236S) (Homo sapiens, UniProt Q96NY8, I236S/L150S/Q234R/S152A)
T1 construct: expressed in transfected cells; host or cells: HEK293T
T1 sequence (Q96NY8 32-510 L150S/S152A/Q234R/I236S): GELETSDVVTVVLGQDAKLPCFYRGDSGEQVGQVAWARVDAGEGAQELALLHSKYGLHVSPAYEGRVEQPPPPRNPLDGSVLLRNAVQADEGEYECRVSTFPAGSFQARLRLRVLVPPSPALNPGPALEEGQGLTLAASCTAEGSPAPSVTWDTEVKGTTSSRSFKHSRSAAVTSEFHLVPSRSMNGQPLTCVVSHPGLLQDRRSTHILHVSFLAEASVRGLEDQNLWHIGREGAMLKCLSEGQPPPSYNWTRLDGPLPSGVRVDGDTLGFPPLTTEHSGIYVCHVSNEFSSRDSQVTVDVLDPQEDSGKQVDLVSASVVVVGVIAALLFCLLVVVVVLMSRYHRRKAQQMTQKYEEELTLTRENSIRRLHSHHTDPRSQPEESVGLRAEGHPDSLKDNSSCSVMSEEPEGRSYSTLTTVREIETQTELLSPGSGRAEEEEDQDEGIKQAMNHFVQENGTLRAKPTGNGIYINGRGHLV

T2: human Nectin-4 Mutant 2 (human, UniProt Q96NY8 32-510)
T2 construct: Expressed on transfected HEK293T cells; also called V90S/P92A/A93S/E95A/G96D
T2 chain: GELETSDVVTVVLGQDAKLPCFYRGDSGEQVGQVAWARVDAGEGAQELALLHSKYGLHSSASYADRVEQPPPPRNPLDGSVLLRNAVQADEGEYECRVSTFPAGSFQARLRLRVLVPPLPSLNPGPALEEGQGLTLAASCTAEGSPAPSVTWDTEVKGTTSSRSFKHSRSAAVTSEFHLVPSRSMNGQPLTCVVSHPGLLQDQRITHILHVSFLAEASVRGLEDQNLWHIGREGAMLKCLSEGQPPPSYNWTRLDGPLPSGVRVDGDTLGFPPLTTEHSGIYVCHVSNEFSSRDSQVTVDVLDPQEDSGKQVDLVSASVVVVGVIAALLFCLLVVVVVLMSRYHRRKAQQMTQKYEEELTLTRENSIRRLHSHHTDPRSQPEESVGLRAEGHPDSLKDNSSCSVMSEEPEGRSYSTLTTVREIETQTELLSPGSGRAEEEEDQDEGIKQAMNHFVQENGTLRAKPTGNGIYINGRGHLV

T3: human Nectin-4 Mutant 8 (human, UniProt Q96NY8 32-510)
T3 construct: Expressed on transfected HEK293T cells; also called T190A/T191Q/S193A
T3 chain: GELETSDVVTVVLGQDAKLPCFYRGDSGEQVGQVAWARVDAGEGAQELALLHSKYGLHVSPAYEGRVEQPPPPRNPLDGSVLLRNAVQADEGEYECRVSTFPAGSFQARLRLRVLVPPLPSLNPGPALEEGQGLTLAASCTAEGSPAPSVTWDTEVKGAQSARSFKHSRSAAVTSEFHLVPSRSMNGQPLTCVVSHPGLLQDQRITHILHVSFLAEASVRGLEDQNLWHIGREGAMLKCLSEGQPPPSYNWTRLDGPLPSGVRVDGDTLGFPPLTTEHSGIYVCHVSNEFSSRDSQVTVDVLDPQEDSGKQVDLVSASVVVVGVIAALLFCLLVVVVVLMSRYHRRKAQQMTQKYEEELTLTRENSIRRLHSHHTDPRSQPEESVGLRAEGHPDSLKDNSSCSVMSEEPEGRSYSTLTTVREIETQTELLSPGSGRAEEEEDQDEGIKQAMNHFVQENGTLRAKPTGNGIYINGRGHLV

T4: human Nectin-4 Mutant 9 (human, UniProt Q96NY8 32-510)
T4 construct: Expressed on transfected HEK293T cells; also called L150S/S152A/Q234R/I236S
T4 chain: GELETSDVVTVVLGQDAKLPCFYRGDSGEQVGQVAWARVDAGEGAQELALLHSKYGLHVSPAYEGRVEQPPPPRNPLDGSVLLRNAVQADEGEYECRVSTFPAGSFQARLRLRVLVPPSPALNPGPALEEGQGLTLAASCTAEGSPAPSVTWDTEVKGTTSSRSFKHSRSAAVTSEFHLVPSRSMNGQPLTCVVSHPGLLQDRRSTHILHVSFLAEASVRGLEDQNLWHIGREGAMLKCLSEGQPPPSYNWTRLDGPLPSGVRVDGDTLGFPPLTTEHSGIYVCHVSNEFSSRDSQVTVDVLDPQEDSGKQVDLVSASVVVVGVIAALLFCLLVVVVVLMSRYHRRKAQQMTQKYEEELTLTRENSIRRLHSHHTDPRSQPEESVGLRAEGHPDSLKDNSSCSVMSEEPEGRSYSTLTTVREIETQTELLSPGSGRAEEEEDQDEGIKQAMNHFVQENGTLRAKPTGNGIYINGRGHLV


Experiments:
[1] = system: human Nectin-4 Mutant 5 (A158P/E160G/S243A/F244S); assay: Epitope mapping using Nectin-4 point mutants; format: binding; settings: results irrelevant due to an absence of expression of said protein
Text: (§1) Combined with the published structures of the Nectin-4 domains, Nectin-4 mutations at surface exposed amino acids residues were designed. Nectin-4 domain structure was modelled based on Protein Data Bank reference: 4FRW (domains V et C1). Human Nectin-4 used was NCBI Reference Sequence: NP_112178.2, mouse Nectin-4 used was NCBI Reference Sequence: AAL79833.1, cynomolgus Nectin-4 used was NCBI Reference Sequence: XP_005541277.1, rat Nectin-4 used was NCBI Reference Sequence: NP_001102546.1. The cells expressing the Nectin-4 mutants are then be used for testing anti-Nectin-4 antibodies for loss of binding to different Nectin-4 mutants to identify antibodies that bind to the same site on Nectin-4. […] FIGS. 8A and 8B show different view of a molecular model of the human Nectin-4 protein, indicating the position of substituted residues in mutants 1, 2, 3, 4, 5, 6, 7, 8 and 9.
(§2) Nectin-4 mutants were generated by PCR. The sequences amplified were run on agarose gel and purified using the Macherey Nagel PCR Clean-Up Gel Extraction kit. The purified PCR products generated for each mutant were then ligated into an expression vector, with the ClonTech InFusion system. The vectors containing the mutated sequences were prepared as Miniprep and sequenced. After sequencing, the vectors containing the mutated sequences were prepared as Midiprep using the Promega PureYield™ Plasmid Midiprep System. HEK293T cells were grown in DMEM medium (Invitrogen), transfected with vectors using Invitrogen's Lipofectamine 2000 and incubated at 37° C. in a CO2 incubator for 48 hours prior to testing for transgene expression. The targeted amino acid mutations are shown in Table 13 below, listing the residue present in wild-type Nectin-4/position of residue/residue present in mutant Nectin-4, with position reference being to the Nectin-4 protein with leader peptide shown in SEQ ID NO: 1.
(§3) (+) means that antibodies-Nectin-4 association occurs.

[2] = molecular target: T1, human Nectin-4 Mutant 9 (L150S/S152A/Q234R/I236S); assay: Epitope mapping using Nectin-4 point mutants; format: binding
Text: as §1, §2, §3

human Nectin-4 Mutant 2 = molecular target: T2, human Nectin-4 Mutant 2; assay: binding to HEK293T cells expressing Nectin-4 mutant
human Nectin-4 Mutant 8 = molecular target: T3, human Nectin-4 Mutant 8; assay: as above
human Nectin-4 Mutant 9 = molecular target: T4, human Nectin-4 Mutant 9; assay: as above

| Molecule | association with Mutant 5 [1] | association with Mutant 9 [2] | binding result (human Nectin-4 Mutant 2) | binding result (human Nectin-4 Mutant 8) | binding result (human Nectin-4 Mutant 9) |
| --- | --- | --- | --- | --- | --- |
| 5E7 (antibody, V domains shown) VH: QVQLQQPGAELVKPGASVKLSCKASGYIFTSYWMHWVKQRPGQGLEWIGEIDPSDSYTNYNQKFKGKATLTLDKSSSTTYMQLSSLTSEDSAVYYCVRGYGNYGDYWGQGTTLTVSSASTKGP VL: DVVMTQAAFSNPVTLGTSASISCRSSKSLLHSNGITYLYWYLQKPGQSPQLLIYQMSNLASGVPDRFSSSGSGTDFTLRISRVEAEDVGVYYCAQNLELPWTFGGGTKLEIKRTVAAP | − | + |  |  |  |
| N41 (antibody, V domains shown) VH: QVQLKQSGPGLVQPSQSLSITCTVSGFSLTNYGVHWVRQSPGKGLEWLGVIWSGGSTDYNAAFISRLSISKDTSKSQVFFKMNSLQADDTAIYYCARELIHAMDNWGQGTSVTVSS VL: DIQMTQSPASLSVSVGETVTITCRASENIYSNLAWYQQKQGNSPQLLVFAATNLADGVPSRFSGSGSGTQYSLKINSLQSEDFGTYYCQHFWGTPTFGGGTKLEIK | − | + | binds | binds | binds |
| chimeric parental 5E7 antibody (antibody, V domains shown, Chimeric antibody, murine variable domains with human constant regions; also called ch5E7; CHG1-M-1N4-5E7) VH: QVQLQQPGAELVKPGASVKLSCKASGYIFTSYWMHWVKQRPGQGLEWIGEIDPSDSYTNYNQKFKGKATLTLDKSSSTTYMQLSSLTSEDSAVYYCVRGYGNYGDYWGQGTTLTVSS VL: DVVMTQAAFSNPVTLGTSASISCRSSKSLLHSNGITYLYWYLQKPGQSPQLLIYQMSNLASGVPDRFSSSGSGTDFTLRISRVEAEDVGVYYCAQNLELPWTFGGGTKLEIKR |  |  | binds | binds | binds |
